According to the supplement of paper PMC7125110:
± gives the standard error. For some assays here: Variants at the floor of the assay were thinned out.

B1: glmS ribozyme (parent)
chain: AUAAAAGCGCCAGAACUACAGAAAUGUAGUUGACGAGGAGGAGGUUUAUCGAAUUUUCGGCGGAUGCCUCCAAA

Key:
Settings in all cases: with glucosamine-6-phosphate
glucosamine-6-phosphate [1] = variants of: B1; assay: kcat; higher = faster cleavage; RNA array
Procedure, shortened: (§1)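 The measurements used barcoded ribozyme variants on sequenced MiSeq chips, transcribed in situ by E. coli RNA polymerase and tracked at 37 °C with a hybridised Cy3 probe. Glucosamine-6-phosphate, 40 μM to 10 mM in HEPES/KCl/Mg(OAc)2 buffer, was flowed in while tiles were imaged over ~14 h. Baseline-normalised signals, also normalised to non-cleaving reference variants, gave per-tile medians that were fit to one- or two-exponential decays for kobs. kcat and KM resulted from weighted Michaelis–Menten fits across concentrations.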

glucosamine-6-phosphate [2] = variants of: B1; assay: KM; higher = weaker cofactor use; RNA array
Procedure, shortened: as §1

glucosamine-6-phosphate [3] = variants of: B1; assay: self-cleavage kobs at 40 uM GlcN6P; higher = faster cleavage; RNA array
Procedure, shortened: as §1

glucosamine-6-phosphate [4] = variants of: B1; assay: self-cleavage kobs at 160 uM GlcN6P; higher = faster cleavage; RNA array
Procedure, shortened: as §1

glucosamine-6-phosphate [5] = variants of: B1; assay: self-cleavage kobs at 640 uM GlcN6P; higher = faster cleavage; RNA array
Procedure, shortened: as §1

glucosamine-6-phosphate [6] = variants of: B1; assay: self-cleavage kobs at 2500 uM GlcN6P; higher = faster cleavage; RNA array
Procedure, shortened: as §1

glucosamine-6-phosphate [7] = variants of: B1; assay: self-cleavage kobs at 10000 uM GlcN6P; higher = faster cleavage; RNA array
Procedure, shortened: as §1

| Variant | kcat (glucosamine-6-phosphate [1]) | KM (glucosamine-6-phosphate [2]) | self-cleavage kobs at 40 uM GlcN6P (glucosamine-6-phosphate [3]) | self-cleavage kobs at 160 uM GlcN6P (glucosamine-6-phosphate [4]) | self-cleavage kobs at 640 uM GlcN6P (glucosamine-6-phosphate [5]) | self-cleavage kobs at 2500 uM GlcN6P (glucosamine-6-phosphate [6]) | self-cleavage kobs at 10000 uM GlcN6P (glucosamine-6-phosphate [7]) |
| --- | --- | --- | --- | --- | --- | --- | --- |
| G40U C70G | 0.000495 ± 8.8e-05 s⁻¹ | 1770 ± 560 µM | 2.91e-05 ± 7.3e-06 s⁻¹ | 4.28e-05 ± 7.1e-06 s⁻¹ | 0.000121 ± 1e-05 s⁻¹ | 0.000346 ± 3.4e-05 s⁻¹ | 0.000404 ± 3.4e-05 s⁻¹ |
| G41U U56A | 0.00219 ± 0.00072 s⁻¹ | 4700 ± 2000 µM | 3.42e-05 ± 8.2e-06 s⁻¹ | 7.37e-05 ± 1.6e-05 s⁻¹ | 0.000234 ± 3.5e-05 s⁻¹ | 0.000769 ± 0.0001 s⁻¹ | 0.00153 ± 0.00029 s⁻¹ |
| U31A G40A | 0.00231 ± 0.00021 s⁻¹ | 1250 ± 170 µM | 7.32e-05 ± 1.2e-05 s⁻¹ | 0.000266 ± 0.00011 s⁻¹ | 0.000717 ± 0.00016 s⁻¹ | 0.00206 ± 0.00066 s⁻¹ | 0.00201 ± 0.00033 s⁻¹ |
| A12U G51A | 1.05e-05 ± 2.6e-06 s⁻¹ |  |  |  |  |  |  |
| G40A A64G | 0.00353 ± 0.0011 s⁻¹ | 3100 ± 1400 µM | 7.68e-05 ± 1.3e-05 s⁻¹ | 0.000131 ± 3.3e-05 s⁻¹ | 0.000538 ± 9e-05 s⁻¹ | 0.00188 ± 0.00029 s⁻¹ | 0.00259 ± 0.00038 s⁻¹ |
| U31G U56G C67U | 0.00109 ± 0.00017 s⁻¹ | 2910 ± 800 µM |  | 8.73e-05 ± 3.2e-05 s⁻¹ | 0.000176 ± 5.1e-05 s⁻¹ | 0.000493 ± 0.00014 s⁻¹ | 0.00086 ± 0.00015 s⁻¹ |
| U47G C50U A64C | 1.3e-05 ± 3.4e-06 s⁻¹ |  |  |  |  |  |  |
| U47A A64C | 0.000113 ± 8.6e-06 s⁻¹ | 720 ± 280 µM |  |  | 6.51e-05 ± 1.8e-05 s⁻¹ | 7.85e-05 ± 1.3e-05 s⁻¹ | 0.000109 ± 1.1e-05 s⁻¹ |
| C71A | 0.0153 ± 0.0014 s⁻¹ | 2490 ± 360 µM | 0.00092 ± 0.0004 s⁻¹ | 0.00104 ± 7.6e-05 s⁻¹ | 0.00298 ± 0.00014 s⁻¹ | 0.00761 ± 0.00039 s⁻¹ | 0.0124 ± 0.0006 s⁻¹ |
| A33U G40C | 5.14e-05 ± 7.9e-06 s⁻¹ |  |  |  |  |  |  |
| A15U G32C | 0.000139 ± 7.8e-06 s⁻¹ | 2550 ± 370 µM |  |  | 3.14e-05 ± 7.2e-06 s⁻¹ | 6.49e-05 ± 8.6e-06 s⁻¹ | 0.000112 ± 9.6e-06 s⁻¹ |
| G9A U55A | 2.49e-05 ± 5.6e-07 s⁻¹ | 1410 ± 200 µM |  |  |  |  | 2.18e-05 ± 9.9e-06 s⁻¹ |
| C16U A52G | 0.00224 ± 0.00092 s⁻¹ |  | 3.86e-05 ± 9e-06 s⁻¹ | 9.03e-05 ± 2.1e-05 s⁻¹ | 0.000237 ± 5.8e-05 s⁻¹ | 0.000576 ± 7.9e-05 s⁻¹ | 0.0016 ± 0.00017 s⁻¹ |
| A53G C70G | 0.000195 ± 1.8e-05 s⁻¹ |  | 0.000132 ± 2.3e-05 s⁻¹ | 0.000309 ± 9.5e-05 s⁻¹ | 0.000196 ± 2.9e-05 s⁻¹ | 0.000173 ± 2.5e-05 s⁻¹ | 0.000215 ± 3.6e-05 s⁻¹ |
| C16G A52G | 0.000339 ± 0.0001 s⁻¹ |  |  |  | 7.43e-05 ± 2.3e-05 s⁻¹ | 0.000119 ± 1.9e-05 s⁻¹ | 0.000262 ± 4.1e-05 s⁻¹ |
| A53G C67G | 0.007 ± 0.0028 s⁻¹ |  | 0.000155 ± 1.6e-05 s⁻¹ | 0.000304 ± 4.6e-05 s⁻¹ | 0.00225 ± 0.00035 s⁻¹ | 0.00466 ± 0.00096 s⁻¹ | 0.00539 ± 0.00069 s⁻¹ |
| A53G G60A | 2.61e-05 ± 9.4e-06 s⁻¹ |  |  |  |  | 3.68e-05 ± 1e-05 s⁻¹ | 1.88e-05 ± 8.7e-06 s⁻¹ |

| Variant | kcat (glucosamine-6-phosphate [1]) | KM (glucosamine-6-phosphate [2]) | self-cleavage kobs at 40 uM GlcN6P (glucosamine-6-phosphate [3]) | self-cleavage kobs at 160 uM GlcN6P (glucosamine-6-phosphate [4]) | self-cleavage kobs at 640 uM GlcN6P (glucosamine-6-phosphate [5]) | self-cleavage kobs at 2500 uM GlcN6P (glucosamine-6-phosphate [6]) | self-cleavage kobs at 10000 uM GlcN6P (glucosamine-6-phosphate [7]) |
| --- | --- | --- | --- | --- | --- | --- | --- |
| G29U U49G | 0.000125 ± 2e-05 s⁻¹ | 5270 ± 1900 µM |  |  |  | 3.79e-05 ± 1.7e-05 s⁻¹ | 8.25e-05 ± 1.9e-05 s⁻¹ |
| U54C C71G | 0.00083 ± 0.00027 s⁻¹ |  |  | 0.000132 ± 5.7e-05 s⁻¹ | 0.000424 ± 0.00013 s⁻¹ | 0.000351 ± 0.00011 s⁻¹ | 0.00091 ± 0.00016 s⁻¹ |
| U56C C67U | 3.78e-05 ± 8.1e-07 s⁻¹ | 7870 ± 360 µM | < 1e-05 s⁻¹ | < 1e-05 s⁻¹ |  |  |  |
| U56C C67A | 4.27e-05 ± 1.5e-06 s⁻¹ | 701 ± 180 µM |  |  |  | 3.57e-05 ± 1.4e-05 s⁻¹ | 3.95e-05 ± 7.5e-06 s⁻¹ |
| U30C U56G | 0.000308 ± 7.9e-05 s⁻¹ |  |  |  | 8.86e-05 ± 1.3e-05 s⁻¹ | 0.000135 ± 1.8e-05 s⁻¹ | 0.000296 ± 3.5e-05 s⁻¹ |
| U46C C67A | 0.000818 ± 0.00012 s⁻¹ | 1380 ± 390 µM | 3.57e-05 ± 1.7e-05 s⁻¹ | 6.58e-05 ± 2.1e-05 s⁻¹ | 0.000284 ± 5.6e-05 s⁻¹ | 0.00062 ± 0.00012 s⁻¹ | 0.000676 ± 0.00011 s⁻¹ |
| U30A G37A | 0.000308 ± 0.00011 s⁻¹ |  |  | 3.75e-05 ± 1.2e-05 s⁻¹ | 6.25e-05 ± 1.2e-05 s⁻¹ | 0.000141 ± 2.9e-05 s⁻¹ | 0.000302 ± 7.7e-05 s⁻¹ |
| G29C C61A | 1.76e-05 ± 3.3e-06 s⁻¹ |  | < 1e-05 s⁻¹ |  |  |  |  |
| U30G C50U | < 1e-05 s⁻¹ |  |  | < 1e-05 s⁻¹ |  |  |  |
| A12U A52C C67A | 2.65e-05 ± 5e-06 s⁻¹ |  |  |  |  |  |  |
| A48G C71A | 2.26e-05 ± 4.7e-06 s⁻¹ |  |  |  |  | 2.93e-05 ± 1.3e-05 s⁻¹ |  |
| U45C U57C | 1.67e-05 ± 1e-06 s⁻¹ | 6920 ± 1000 µM |  |  |  |  |  |
| G41C U56G | 0.000101 ± 5.7e-06 s⁻¹ | 2280 ± 390 µM |  |  | 2.47e-05 ± 1e-05 s⁻¹ | 4.78e-05 ± 1.5e-05 s⁻¹ | 8.29e-05 ± 1.2e-05 s⁻¹ |
| A12U G40U | 0.0088 ± 0.0017 s⁻¹ | 1410 ± 390 µM | 0.000308 ± 2.8e-05 s⁻¹ | 0.000749 ± 8.6e-05 s⁻¹ | 0.00235 ± 0.00038 s⁻¹ | 0.00609 ± 0.00085 s⁻¹ | 0.00785 ± 0.00081 s⁻¹ |
| A14G A33C | 0.000125 ± 5.4e-06 s⁻¹ | 1470 ± 220 µM |  |  | 3.41e-05 ± 1.4e-05 s⁻¹ | 8.25e-05 ± 1.2e-05 s⁻¹ | 0.000108 ± 1.2e-05 s⁻¹ |
| C50U G59U | < 1e-05 s⁻¹ | 71.2 ± 32 µM | < 1e-05 s⁻¹ |  | < 1e-05 s⁻¹ |  | < 1e-05 s⁻¹ |
